B1: PTPN9 (parent)
chain: IDFLRVVRNQQSLAVSNMGARSKG
B2: CDC25A (parent)
chain: QLIDPDENKENEAFEFKKPVRPVS
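Also: lentivirally expressed fusions sorted by FACS into six bins by GFP to DsRed ratio, PSI derived from sequencing read proportions per bin multiplied by bin number.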

Variants of: B1
Assay: protein stability index of a GFP-peptide fusion (GPS, HEK-293T) (PSI 1-6); higher = more stable
Conditions: c terminus: a fixed tail appended
Variant A14N has a protein stability index of 2.4. For A14L, the protein stability index was 1.76. With A14Y the protein stability index was 2.04. In the case of A14W, the protein stability index is reported as 2.39. For A14I, the protein stability index was 1.8. For L13W, the protein stability index was 2.72. In the case of L13D, the protein stability index is reported as 3.08. For L13Y, the protein stability index was 2.57. Work on L13N yielded a protein stability index of 3.2. For Q11G, the protein stability index was 2.35. In the case of Q11C, the protein stability index is reported as 1.91. Work on Q11P yielded a protein stability index of 2.37. Work on Q11M yielded a protein stability index of 2.1. Q11N gave a protein stability index of 2.84. Q11H gave a protein stability index of 2.26. L4I gave a protein stability index of 1.69. L4F gave a protein stability index of 2.3. L4E gave a protein stability index of 4.22. With L4C the protein stability index was 2.94. L4K showed a protein stability index of 3.25. For L4R, the protein stability index was 3.06. N17E gave a protein stability index of 3.08. Work on S22Y yielded a protein stability index of 2.16. Work on S22M yielded a protein stability index of 1.81. For S22H, the protein stability index was 2.55. S22D gave a protein stability index of 2.69. With S22Q the protein stability index was 2.86. For S22T, the protein stability index was 2.23. S22R showed a protein stability index of 2.64. In the case of S22F, the protein stability index is reported as 2.24. V15W showed a protein stability index of 2.25. Variant V15Y has a protein stability index of 2.15. In the case of V15K, the protein stability index is reported as 2.62. For V15A, the protein stability index was 2.82. In the case of V15M, the protein stability index is reported as 2.61. In the case of V15S, the protein stability index is reported as 2.49. For V15Q, the protein stability index was 2.79. V15E gave a protein stability index of 2.69. For K23E, the protein stability index was 2.32. In the case of K23G, the protein stability index is reported as 1.96. K23R gave a protein stability index of 2.4. In the case of K23V, the protein stability index is reported as 1.72. Work on K23D yielded a protein stability index of 2.36. K23L gave a protein stability index of 1.72. Q10I showed a protein stability index of 1.95. Variant Q10K has a protein stability index of 2.27. Q10W gave a protein stability index of 2.02. Q10R showed a protein stability index of 2.19. Q10A showed a protein stability index of 2.06. Variant Q10G has a protein stability index of 3.19. G24A gave a protein stability index of 2.55. Work on G24K yielded a protein stability index of 3.05. In the case of G24D, the protein stability index is reported as 2.75. G24P showed a protein stability index of 2.2. In the case of G24R, the protein stability index is reported as 2.48. Variant G24L has a protein stability index of 2.18. In the case of G24C, the protein stability index is reported as 1.84. Variant G24S has a protein stability index of 2.28. With G24H the protein stability index was 2.27. With G24M the protein stability index was 2.18. For S16T, the protein stability index was 2.2. With S16N the protein stability index was 2.52. S16G gave a protein stability index of 2.35. S16H showed a protein stability index of 2.15. For S16Q, the protein stability index was 2.78. With F3T the protein stability index was 4.5. Variant F3Q has a protein stability index of 3.89. In the case of F3H, the protein stability index is reported as 4.36. F3D showed a protein stability index of 4.21. F3S gave a protein stability index of 3.88. In the case of F3G, the protein stability index is reported as 4.02. With F3M the protein stability index was 2.75. F3V gave a protein stability index of 3.78. For F3N, the protein stability index was 4.45. In the case of R5C, the protein stability index is reported as 1.48. Variant R5V has a protein stability index of 1.83. In the case of R5A, the protein stability index is reported as 2.06. With R5P the protein stability index was 3.73. For R5S, the protein stability index was 3. R5Q gave a protein stability index of 3.27. With R5Y the protein stability index was 2.54. R5D showed a protein stability index of 3.71. In the case of R5K, the protein stability index is reported as 2.39. In the case of D2S, the protein stability index is reported as 2.55. In the case of D2W, the protein stability index is reported as 2.16. Work on D2H yielded a protein stability index of 2.41. D2N gave a protein stability index of 2.06. Work on D2G yielded a protein stability index of 2.64. Work on D2V yielded a protein stability index of 2.84. N9F showed a protein stability index of 2.66. Variant N9C has a protein stability index of 1.96. Work on N9D yielded a protein stability index of 3.66. N9H gave a protein stability index of 2.57. G19C showed a protein stability index of 2.24. For G19R, the protein stability index was 1.97. With G19P the protein stability index was 2.83. G19W showed a protein stability index of 2.66. G19M showed a protein stability index of 2.3. Variant R8T has a protein stability index of 2.13. With R8C the protein stability index was 2.27. Work on R8H yielded a protein stability index of 2.32. R8D gave a protein stability index of 3.22. In the case of R8W, the protein stability index is reported as 1.94. Variant R8S has a protein stability index of 1.8. With V7L the protein stability index was 1.85. With V7N the protein stability index was 3.53. For V7M, the protein stability index was 2.03. In the case of V7T, the protein stability index is reported as 2.98. Variant V7C has a protein stability index of 3.07. Work on V7I yielded a protein stability index of 2.41. Variant I1H has a protein stability index of 3.96. With I1T the protein stability index was 3.43. In the case of I1N, the protein stability index is reported as 3.83. In the case of I1R, the protein stability index is reported as 3.35. I1P showed a protein stability index of 4.25. With S12H the protein stability index was 2.41. For S12D, the protein stability index was 2.75. Variant M18S has a protein stability index of 3.13. With M18V the protein stability index was 2.32. Variant M18N has a protein stability index of 3.06. M18W showed a protein stability index of 2.03. M18I showed a protein stability index of 2.13. Variant R21P has a protein stability index of 2.15. With R21C the protein stability index was 1.83. Variant R21W has a protein stability index of 2.18. For A20F, the protein stability index was 2.1. A20R showed a protein stability index of 2.47. A20K gave a protein stability index of 2.69. In the case of A20N, the protein stability index is reported as 2.78. In the case of A20S, the protein stability index is reported as 2.75. Variant A20I has a protein stability index of 1.99. With V6A the protein stability index was 3.12. With V6C the protein stability index was 2.42. With V6S the protein stability index was 3.36. Variant V6F has a protein stability index of 2.26. Variant V6K has a protein stability index of 2.8. Variant V6N has a protein stability index of 3.35. In the case of V6I, the protein stability index is reported as 1.99.

Variants of: B2
Assay: as above
Conditions: c terminus: a fixed tail appended
Work on V23P yielded a protein stability index of 3.52. V23R showed a protein stability index of 3.11. In the case of V23G, the protein stability index is reported as 4.05. With V23Q the protein stability index was 4.04. V23K gave a protein stability index of 3.85. V23H showed a protein stability index of 4.05. V23S gave a protein stability index of 3.09. Variant V23I has a protein stability index of 3.43. With V23Y the protein stability index was 3.32. Variant V23M has a protein stability index of 2.46. With V23F the protein stability index was 3.89. With V23N the protein stability index was 3.51. With S24F the protein stability index was 3.88. S24A gave a protein stability index of 4.16. For S24C, the protein stability index was 3.5. Work on S24Y yielded a protein stability index of 3.73. Variant S24E has a protein stability index of 4.67. S24K gave a protein stability index of 4.72. Variant S24H has a protein stability index of 2.87. Variant S24G has a protein stability index of 3.54. S24L showed a protein stability index of 3.21. Work on S24V yielded a protein stability index of 3.76. In the case of S24D, the protein stability index is reported as 5.24. Variant S24Q has a protein stability index of 4.25. In the case of S24W, the protein stability index is reported as 3.3. Work on S24P yielded a protein stability index of 4.33. In the case of S24R, the protein stability index is reported as 3.58. S24N showed a protein stability index of 3.34. S24M showed a protein stability index of 3.49.

From the supplement of paper PMC10567573
